The target of experiment [1] is T1, recombinant human DLL4 (C-terminally His-tagged extracellular domain, R&D Systems) (human, UniProt Q9NR61 25-522, biotinylated in the competition ELISA).
T1 construct: also called rhDLL4; hDLL4
The experiment can be described thus: competition ELISA hDLL4/hNotch1-Fc; summary table.

Experiment [2] deals with T1, recombinant human DLL4 (C-terminally …). The experiment can be described thus: competition ELISA, biotinylated hDLL4 to coated hNotch1-Fc.
The target of experiment [3] is T2, recombinant human VEGF165 (human, UniProt P15692-4 27-191, biotinylated in the competition assays).
T2 construct: Bought protein; also called hVEGF165; rhVEGF165
T2 sequence (P15692 other isoform, or with tags, fused parts or gaps): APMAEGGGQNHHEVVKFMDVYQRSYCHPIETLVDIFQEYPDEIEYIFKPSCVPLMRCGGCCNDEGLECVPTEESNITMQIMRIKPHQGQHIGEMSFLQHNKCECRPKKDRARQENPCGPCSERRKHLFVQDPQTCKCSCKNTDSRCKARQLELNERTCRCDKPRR
Briefly: AlphaScreen, hVEGF165/hVEGFR2-Fc competition. More on the design: % inhibition: concentration or dose not given beside the values.

Experiment [4] concerns the target T1, recombinant human DLL4 (C-terminally …). The experiment can be described thus: ProteOn off-rate screen, periplasmic extract, coated human DLL4. How it is done: (§1) In a first cycle, amino acid substitutions are introduced randomly in both framework (FW) and complementary determining regions (CDR) using the error-prone PCR method. […] After a polish step, PCR products are inserted via unique restriction sites into a vector designed to facilitate phage display of the VHH library. Consecutive rounds of in-solution selections are performed using decreasing concentrations of biotinylated recombinant human DLL4 (biot-rhDLL4) and trypsin elutions. Affinity-driven selections in a third round using cold rhDLL4 (at least 100× excess over biot-rhDLL4) are also performed. No selections on murine DLL4 are included as (conservation of) cross-reactivity is assessed at the screening level. Individual mutants are produced as recombinant protein using an expression vector derived from pUC119, which contains the LacZ promoter, a resistance gene for ampicillin, a multiple cloning site and an ompA leader sequence (pAX50). E. coliTG1 cells are transformed with the expression vector library and plated on agar plates (LB+Amp+2% glucose). Single colonies are picked from the agar plates and grown in 1 mL 96-deep-well plates. VHH expression is induced by adding IPTG (1 mM). Periplasmic extracts (in a volume of ˜80 uL) are prepared according to standard methods and screened for binding to recombinant human and mouse DII4 in a ProteOn (BioRad, Hercules, Calif., USA) off-rate assay. In brief, a GLC ProteOn Sensor chip is coated with recombinant human DII4 on the “ligand channels” L2 and L4 (with L1/L3 as reference channel), while “ligand channels” […] is coated with mouse DII4. Periplasmic extract of affinity-matured clones is diluted 1/10 and injected across the “analyte channels” A1-A6. An average off-rate is calculated of the wild type clones present in the plate and served as a reference to calculate off-rate improvements.

The target is the same in experiment [5]. Briefly: SPR (Biacore), rhDLL4. How it is done:
Kinetic analysis to determine the affinity of the DII4-VHH interaction is performed by Surface Plasmon Resonance (SPR) on a Biacore T100 instrument. […] Purified VHHs or Fab fragment are injected for 2 minutes at different concentrations (between 10 and 300 nM) and allowed to dissociate for 20 min at a flow rate of 45 μl/min. Between sample injections, the surfaces are regenerated with 10 mM glycine pH1.5 and 100 mM HCl. HBS-N (Hepes buffer pH7.4) is used as running buffer. If possible, data are evaluated by fitting a 1:1 interaction model (Langmuir binding) onto the binding curves. The affinity constant KD is calculated from resulting association and dissociation rate constants (kₐ) and […].

The target is the same in experiment [6]. Briefly: SPR (Biacore); summary table.
Experiment [7] concerns the target T3, recombinant mouse DLL4 (C-terminally His-tagged extracellular domain, R&D Systems) (mouse, UniProt Q9JI71 27-532).
T3 construct: extracellular domain; also called rmDLL4; mDLL4
Briefly: ProteOn off-rate screen, periplasmic extract, coated mouse DLL4. On the procedure:
as §1

Experiment [8] has as its target T4, human DLL4 overexpressed on cells (human, UniProt Q9NR61 27-685).
T4 construct: full length human DLL4 on CHO or HEK293 cells; also called CHO-hDLL4; CHO-hDII4
The experiment can be described thus: FMAT, labelled hNotch1-Fc on CHO-hDLL4, periplasmic extract. An excerpt:
(§2) All calculations are based on the FL1_total signal which comprises the average of the fluorescence per well times the number of counts per well.

The target of experiment [9] is T5, mouse DLL4 overexpressed on cells (mouse, UniProt Q9JI71 27-686).
T5 construct: whole, on cells; also called CHO-mDLL4; CHO-mDII4
T5 sequence (Q9JI71 27-686): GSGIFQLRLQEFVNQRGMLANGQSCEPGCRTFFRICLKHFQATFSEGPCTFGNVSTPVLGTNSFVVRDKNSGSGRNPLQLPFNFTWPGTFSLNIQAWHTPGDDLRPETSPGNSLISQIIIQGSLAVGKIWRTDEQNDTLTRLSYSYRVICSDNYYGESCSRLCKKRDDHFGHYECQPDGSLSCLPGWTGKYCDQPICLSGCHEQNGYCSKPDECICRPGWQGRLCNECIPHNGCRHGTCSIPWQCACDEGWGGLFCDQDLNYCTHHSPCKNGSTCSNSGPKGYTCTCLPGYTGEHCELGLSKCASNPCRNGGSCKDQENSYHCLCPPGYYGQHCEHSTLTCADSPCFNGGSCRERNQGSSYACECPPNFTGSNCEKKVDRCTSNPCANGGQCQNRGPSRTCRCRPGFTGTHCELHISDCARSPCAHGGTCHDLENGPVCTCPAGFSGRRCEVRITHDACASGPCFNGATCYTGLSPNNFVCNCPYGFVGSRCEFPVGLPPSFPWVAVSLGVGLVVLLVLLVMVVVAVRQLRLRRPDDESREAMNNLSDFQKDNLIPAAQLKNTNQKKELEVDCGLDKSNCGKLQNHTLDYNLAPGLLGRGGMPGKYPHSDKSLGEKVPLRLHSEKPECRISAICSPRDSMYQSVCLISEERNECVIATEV
The experiment can be described thus: FMAT, labelled hNotch1-Fc on CHO-mDLL4, periplasmic extract.
From the text: as §2

We go through 15 molecules from patent US20140120095A1 (Boehringer Ingelheim, published 2014).

T3 sequence (Q9JI71 27-532): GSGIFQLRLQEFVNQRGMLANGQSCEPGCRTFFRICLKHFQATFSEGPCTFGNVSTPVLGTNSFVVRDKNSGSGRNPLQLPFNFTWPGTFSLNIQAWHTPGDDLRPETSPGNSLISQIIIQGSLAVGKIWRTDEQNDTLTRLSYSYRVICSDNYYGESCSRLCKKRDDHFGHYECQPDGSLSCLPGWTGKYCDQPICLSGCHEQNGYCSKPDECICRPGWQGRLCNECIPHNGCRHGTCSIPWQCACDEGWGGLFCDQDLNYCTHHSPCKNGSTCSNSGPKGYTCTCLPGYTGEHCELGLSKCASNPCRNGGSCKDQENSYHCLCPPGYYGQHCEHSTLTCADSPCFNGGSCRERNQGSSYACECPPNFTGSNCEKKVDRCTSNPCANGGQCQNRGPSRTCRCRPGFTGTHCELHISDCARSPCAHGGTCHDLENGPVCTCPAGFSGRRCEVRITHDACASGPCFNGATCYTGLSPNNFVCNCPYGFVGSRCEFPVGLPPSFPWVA

B1: DLLBII133A05 (VHH)
VHH: EVQLVESGGGLVQPGGSLRLSCAASGFTFGSYDMSWVRRSPGKGPEWVSAINSGGGSTFYTDYVKGRFTISRDNAKNTLYLQMNSLKPEDTAVYYCAADRYIWARQGEYWGAYQYDYWGQGTQVTVSS
Take B1: the IC50 in [1] and in experiment [2] was 2.1 nM each time.

B2: VEGFBII111D05 (VHH)
VHH: EVQLVESGGGLVQTGGSLRLSCEASGRTFSSYSMGWFRQAPGKEREFVVAISKGGYKYDSVSLEGRFTISRDNAKNTVYLQINSLRPEDTAVYYCASSRAYGSSRLRLADTYEYWGQGTLVTVSS
In the case of B2, in experiment [3], the “% inhibition” value was 100% and the IC50 is 0.209 nM.

B3: VEGFBII118E10 (VHH)
VHH: EVQLVESGGGLVQTGDSLRLSCEVSGRTFSSYSMGWFRQAQGKEREFVVAISKGGYKYDAVSLEGRFTISKDNAKNTVYLQINSLKPEDTAVYYCASSRAYGSSRLRLADTYEYWGQGTQVTVSS
Turning to B3, in experiment [3], the “% inhibition” value turned out to be 100% and the IC50 was found to be 0.189 nM.

B4: VEGFBII112D11 (VHH)
VHH: EVQLVESGGGLVQPGGSLRLSCEASGRTFSSYSMGWFRQAPGKEREFVVAISKGGYKYDSVSLEGRFTISRDNAKNTVYLQINSLRPEDTAVYYCASSRAYGSSRLRLADTYEYWGQGTLVTVSS
As for B4, in experiment [3], the “% inhibition” value worked out at 100% and the half-inhibitory concentration (IC50) turned out to be 0.221 nM.

B5: VEGFBII111G06 (VHH)
VHH: EVQLVESGGGLVQPGGSLRLSCAASGRTFSSYSMGWFRQAPGKEREFVVAISKGGYKYDSVSLEGRFTISRDNAKNTVYLQMNSLRPEDTAVYYCASSRAYGSSRLRLADTYEYWGQGTLVTVSS
Turning to B5, in experiment [3], the “% inhibition” value turned out to be 100% and the IC50 is 0.366 nM.

B6: VEGFBII113E03 (VHH)
VHH: EVQLVESGGGLVQTGDSLRLSCEVSGRTFSSYSMGWFRQAQGKEREFVVAISKGGYKYDSVSLEGRFTISKDNAKNTVYLQMNSLRPEDTAVYYCASSRAYGSSRLRLADTYEYWGQGTLVTVSS
Turning to B6, in [3], the “% inhibition” value was found to be 100% and the IC50 came to 0.29 nM.

B7: VEGFBII113A08 (VHH)
VHH: EVQLVESGGGLVQTGGSLRLSCEVSGRTFSSYSMGWFRQAPGKEREFVVAISKGGYKYDSVSLEGRFTISKDNAKNTVYLQINSLRPEDTAVYYCASSRAYGSSRLRLADTYEYWGQGTLVTVSS
On to B7, for which, in experiment [3], the “% inhibition” value came to 100% and the IC50 amounted to 0.253 nM.

B8: VEGFBII114C09 (VHH)
VHH: EVQLVESGGGLVQPGDSLRLSCEVSGRTFSSYSMGWFRQAPGKEREFVVAISKGGYKYDSVSLEGRFTISKDNAKNTVYLQINSLRPEDTAVYYCASSRAYGSSRLRLADTYEYWGQGTLVTVSS
With B8, in [3], the “% inhibition” value was 100% and the IC50 turned out to be 0.215 nM.

B9: VEGFBII114D03 (VHH)
VHH: EVQLVESGGGLVQTGDSLRLSCAVSGRTFSSYSMGWFRQAQGKEREFVVAISKGGYKYDSVSLEGRFTISKDNAKNTVYLQINSLRPEDTAVYYCASSRAYGSSRLRLADTYEYWGQGTLVTVSS
On to B9, for which, in experiment [3], the “% inhibition” value came out at 100% and the IC50 stood at 0.227 nM.

B10: VEGFBII114D02 (VHH)
VHH: EVQLVESGGGLVQTGGSLRLSCEVSGRTFSSYSMGWFRQAPGKEREFVVAISKGGYKYDSVSLEGRFTISRDNAKNTVYLQINSLRPEDTAVYYCASSRAYGSSRLRLADTYEYWGQGTLVTVSS
Take B10: in [3], the “% inhibition” value was found to be 100% and the IC50 is 0.199 nM.

B11: DLLBII129A03 (VHH, not shown: small tags and cut ends)
VHH: EVQLVESGGGLVQAGGSLRLSCAASGRTFSSYAMAWFRQAPGKEREYVAAIRWSGGTAYYADSVQGRFTISRDNAKNTVYLQMNSLRPEDTAVYYCANRAPDTRLRPYLYDYWGQGTQVTVSS
Turning to B11, the IC50 in [1] and in [2] was 1.8 nM in each case. Further, the “fold (off-rate vs DLLBII101G08)” value in experiment [4] worked out at 19 fold; in [7], 18 fold. The koff was determined as 0.00012 s⁻¹ in experiment [4], 0.00012 s⁻¹ in experiment [5] and 0.00038 s⁻¹ in experiment [7]. Also, the Kd in [5] and in [6] was 0.5 nM throughout. For the same molecule, the kon in [5] is 210000 M⁻¹ s⁻¹.

B12: DLLBII130B03 (VHH, not shown: small tags and cut ends)
VHH: EVQLVESGGGLVQAGGSLRLSCAASGRTFSSYAMAWYRQAPGKEREYVAAIRWSGGTAYYADSVQGRFTISRDNAKNTVYLQMNSLKPEDTAVYYCANRAPDTRLAPYLYDYWGQGTQVTVSS
B12: the IC50 in experiment [1] and in [2] was 1.5 nM throughout. Moreover, the entries for the “fold (off-rate vs DLLBII101G08)” value in experiment [4] and in [7] were 27 fold and 20 fold, respectively. Besides, the results for the koff in experiment [4], in [5] and in experiment [7] were 6.7e-05 s⁻¹, 6.8e-05 s⁻¹ and 0.00024 s⁻¹, respectively. In addition, the Kd in experiment [5] and in experiment [6] was 0.3 nM throughout. In addition, the kon in [5] is 220000 M⁻¹ s⁻¹.

B13: DLLBII130F06 (VHH, not shown: small tags and cut ends)
VHH: EVQLVESGGGLVQAGGSLRLSCAASGRTFSSYAMAWYRQAPGKEREYVAAIRWSGGTAYYADSVQGRFTISRDNAKNTVYLQMNSLKPEDTAVYYCANRAPDTRLAPYEYDYWGQGTQVTVSS
B13: the IC50 in [1] and in experiment [2] was 1.3 nM each time. The “fold (off-rate vs DLLBII101G08)” value was 27 fold in experiment [4] and 19 fold in experiment [7]. Also, the koff in experiment [4] was determined as 6.5e-05 s⁻¹; in experiment [5] it was 8e-05 s⁻¹; in experiment [7], 0.00026 s⁻¹. Moreover, the Kd in experiment [5] and in experiment [6] was 0.4 nM in each case. Also, the kon in experiment [5] worked out at 200000 M⁻¹ s⁻¹.

B14: DLLBII129H07 (VHH, not shown: small tags and cut ends)
VHH: EVQLVESGGGLVQAGGSLRLSCAASGRTFSSYAMAWYRQAPGKEREYVAAIRWSGGTAYYADSVQGRFTISRDNAKNTVYLQMNSLKPEDTAVYYCANRAPDTRLEPYEYDYWGQGTQVTVSS
Turning to B14, the half-maximal inhibitory concentration (IC50) in experiment [1] and in [2] was 1 nM throughout. The “fold (off-rate vs DLLBII101G08)” value was found to be 30 fold in experiment [4] and 27 fold in experiment [7]. Moreover, the koff in experiment [4] was determined as 7.4e-05 s⁻¹; in experiment [5], 7.3e-05 s⁻¹; in experiment [7] it was 0.00025 s⁻¹. The Kd in experiment [5] and in [6] was 0.5 nM each time. Also, in [5], the kon turned out to be 160000 M⁻¹ s⁻¹.

B15: DLLBII80E08 (VHH)
VHH: EVQLVESGGGLVQAGGSLTLSCAASGGTFTTYAMGWFRQAPGKEREFVAAVSRFGVSWDYADSVKGRFTISRDNTANTLKLRMNSLKADDTAVYYCAAGGRSFLPFVPAYWGQGTQVTVSS
On to B15, for which the “% inh” value in experiment [8] is 71%; in experiment [9] it was 82%.
